The source of these data is US20240287501A1 (VIB VZW, published 2024).

The target in experiment [1] is T1, PGI1 (native, un-tagged, from EBY100 lysate) (Saccharomyces cerevisiae, UniProt P12709 2-554).
T1 construct: mature; Endogenous untagged protein, 61 kDa band; also called YBR196C; endogenous PGI1
The experiment is described as follows: co-immunoprecipitation, Nb coupled to NHS-agarose beads, EBY100 yeast lysate (native target), SDS-PAGE. How it is done:
(§1) Three PGI1-specific Nanobodies (55=Nb clone CA17455 corresponding to SEQ ID NO: 15, 56=CA17456-SEQ ID NO: 16, 57=CA17457-SEQ ID NO: 17) were characterized by co-immunoprecipitation assays. Each PGI1-specific Nanobodies was covalently linked to NHS-agarose beads. The beads that were functionalized with these PGI1-specific Nanobodies were incubated for an hour at 4° C. on a rotating device with either an EBY100 lysate or the lysate of the engineered Yeast strain expressing PGI1 (Yeast GFP fusion collection reference: GFP(+)12, H11) as a GFP-tagged protein. After washing, these beads were resuspended in SDS-PAGE loading dye and analyzed on SDS-PAGE (FIG. 7A). Separated proteins were transferred to a PVDF membrane and the Western blot (FIG. 7B) was developed with GFP-specific antibody to confirm the presence of GFP-tagged PGI1.

Experiment [2] has as its target T2, GFP-tagged PGI1 (Saccharomyces cerevisiae, UniProt P12709 2-554).
T2 construct: Yeast GFP Fusion Collection strain; 88 kDa band; also called GFP-PGI1; Yeast GFP fusion collection GFP(+)12, H11; not shown: GFP tag
Description: co-immunoprecipitation, Nb coupled to NHS-agarose beads, lysate of the yeast strain expressing the GFP-tagged target, SDS-PAGE. How it is done:
as §1

Experiment [3] deals with T3, SSA1 (native, from EBY100 lysate) (Saccharomyces cerevisiae, UniProt P10591 2-642).
T3 construct: mature; Endogenous untagged protein; also called YAL005C
T3 sequence (P10591 2-642): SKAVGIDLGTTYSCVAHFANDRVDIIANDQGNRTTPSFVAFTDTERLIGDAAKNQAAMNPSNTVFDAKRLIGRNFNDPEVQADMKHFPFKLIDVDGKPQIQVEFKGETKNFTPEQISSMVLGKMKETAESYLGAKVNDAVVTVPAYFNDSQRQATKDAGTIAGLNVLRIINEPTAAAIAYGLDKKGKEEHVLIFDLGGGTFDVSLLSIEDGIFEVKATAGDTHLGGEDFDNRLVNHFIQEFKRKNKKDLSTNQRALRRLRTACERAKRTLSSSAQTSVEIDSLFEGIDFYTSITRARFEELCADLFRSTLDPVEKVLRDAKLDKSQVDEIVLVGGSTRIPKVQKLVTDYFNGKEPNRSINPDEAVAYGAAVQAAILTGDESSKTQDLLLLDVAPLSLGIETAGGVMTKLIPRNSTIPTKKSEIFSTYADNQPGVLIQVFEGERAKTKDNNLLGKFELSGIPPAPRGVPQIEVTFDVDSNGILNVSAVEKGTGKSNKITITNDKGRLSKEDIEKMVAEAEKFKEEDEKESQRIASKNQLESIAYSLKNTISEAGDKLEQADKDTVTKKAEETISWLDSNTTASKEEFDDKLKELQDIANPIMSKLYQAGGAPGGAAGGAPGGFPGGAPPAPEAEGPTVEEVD
Description: co-IP, Nb on NHS-agarose beads, EBY100 yeast lysate, SDS-PAGE.

The target of experiment [4] is T4, GFP-tagged SSA1 (Saccharomyces cerevisiae, UniProt P10591 2-642).
T4 construct: Yeast GFP Fusion Collection strain; also called Yeast GFP fusion collection GFP(+)10, E4; not shown: GFP tag
T4 sequence (P10591 2-642): as above
Description: co-immunoprecipitation, Nb coupled to NHS-agarose beads, lysate of the yeast strain expressing the GFP-tagged target, Western blot anti-GFP. The procedure: Six SSA1-specific Nanobodies (60=Nb clone CA17560 corresponding to SEQ ID NO: 19, 61=CA17561-SEQ ID NO: 20, 62=CA17562-SEQ ID NO: 21, 63=CA17563-SEQ ID NO: 22, 64=CA17564-SEQ ID NO: 23, 65=CA17565-SEQ ID NO: 24) were characterized by co-immunoprecipitation assays. Each SSA1-specific Nanobodies was covalently linked to NHS-agarose beads. The beads that were functionalized with these SSA1-specific Nanobodies were incubated for an hour at 4° C. on a rotating device with either an EBY100 lysate or the lysate of the engineered Yeast strain expressing SSA1 (Yeast GFP fusion collection reference: GFP(+)10, E4) as a GFP-tagged protein. After washing, these beads were resuspended in SDS-PAGE loading dye and analyzed on SDS-PAGE (FIG. 6A). Separated proteins were transferred to a PVDF membrane and the Western blot (FIG. 6B) was developed with GFP-specific antibody to confirm the presence of GFP-tagged SSA1.
On the technique in general: Immunoblotting shows a protein as a band on a membrane.

For experiment [5], the target named is T5, ALD6 (native, from EBY100 lysate) (Saccharomyces cerevisiae, UniProt P54115 2-500).
T5 construct: mature; Endogenous untagged protein; also called YPL061W
T5 sequence (looked up): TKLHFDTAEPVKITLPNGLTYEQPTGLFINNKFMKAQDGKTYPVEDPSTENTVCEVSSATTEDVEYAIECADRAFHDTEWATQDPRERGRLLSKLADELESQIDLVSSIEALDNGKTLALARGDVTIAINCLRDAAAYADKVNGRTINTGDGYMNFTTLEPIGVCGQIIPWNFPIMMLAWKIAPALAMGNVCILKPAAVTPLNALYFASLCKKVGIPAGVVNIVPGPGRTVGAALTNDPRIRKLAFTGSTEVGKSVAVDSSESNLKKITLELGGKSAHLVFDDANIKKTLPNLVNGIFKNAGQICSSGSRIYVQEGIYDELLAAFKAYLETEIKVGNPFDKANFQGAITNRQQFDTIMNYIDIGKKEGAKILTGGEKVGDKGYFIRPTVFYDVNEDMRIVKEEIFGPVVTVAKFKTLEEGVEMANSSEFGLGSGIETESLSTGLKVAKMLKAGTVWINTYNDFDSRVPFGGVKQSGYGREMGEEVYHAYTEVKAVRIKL
Description: co-IP, Nb on NHS-agarose beads, EBY100 yeast lysate, SDS-PAGE.

Experiment [6] has as its target T6, GFP-tagged ALD6 (Saccharomyces cerevisiae, UniProt P54115 2-500).
T6 construct: Yeast GFP Fusion Collection strain; also called Yeast GFP fusion collection GFP(+)15, F1; not shown: GFP tag
T6 sequence (looked up): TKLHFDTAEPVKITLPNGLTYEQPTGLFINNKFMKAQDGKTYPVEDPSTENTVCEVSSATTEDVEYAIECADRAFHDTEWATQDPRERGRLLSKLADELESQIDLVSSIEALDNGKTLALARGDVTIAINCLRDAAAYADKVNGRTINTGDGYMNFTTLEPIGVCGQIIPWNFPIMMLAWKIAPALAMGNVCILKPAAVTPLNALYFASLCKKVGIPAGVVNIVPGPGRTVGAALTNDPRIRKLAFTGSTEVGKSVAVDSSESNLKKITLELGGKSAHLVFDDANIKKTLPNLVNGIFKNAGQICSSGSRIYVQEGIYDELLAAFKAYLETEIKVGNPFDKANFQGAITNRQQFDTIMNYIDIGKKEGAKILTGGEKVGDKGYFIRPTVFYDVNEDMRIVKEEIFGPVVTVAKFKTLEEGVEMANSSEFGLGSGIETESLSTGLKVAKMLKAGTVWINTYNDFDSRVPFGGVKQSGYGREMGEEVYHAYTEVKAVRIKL
The experiment is described as follows: co-immunoprecipitation, Nb coupled to NHS-agarose beads, lysate of the yeast strain expressing the GFP-tagged target, Western blot anti-GFP. The procedure: One SIS1-specific Nanobody (44=Nb clone CA17444 corresponding to SEQ ID NO: 9), three ALD6-specific Nanobodies (53=CA17453-SEQ ID NO: 10, 54=CA17454-SEQ ID NO: 11, 60=CA17460-SEQ ID NO: 12), two BMH1-specific Nanobodies (58=CA17458-SEQ ID NO: 13, 59=CA17459-SEQ ID NO: 14) were characterized by co-immunoprecipitation assays. Each target-specific Nanobodies was covalently linked to NHS-agarose beads. The beads that were functionalized with these target-specific Nanobodies were incubated for an hour at 4° C. on a rotating device with either an EBY100 lysate or the lysate of the engineered Yeast strain expressing the target (Yeast GFP fusion collection reference for SIS1: GFP(+)22, E5, for ALD6: GFP(+)15, F1, for BMH1: GFP(+)27, D5) as a GFP-tagged protein. After washing, these beads were resuspended in SDS-PAGE loading dye and analyzed on SDS-PAGE (FIG. 8A). Separated proteins were transferred to a PVDF membrane and the Western blot (FIG. 8B) was developed with GFP-specific antibody to confirm the presence of GFP-tagged targets.

T1 sequence (P12709 2-554): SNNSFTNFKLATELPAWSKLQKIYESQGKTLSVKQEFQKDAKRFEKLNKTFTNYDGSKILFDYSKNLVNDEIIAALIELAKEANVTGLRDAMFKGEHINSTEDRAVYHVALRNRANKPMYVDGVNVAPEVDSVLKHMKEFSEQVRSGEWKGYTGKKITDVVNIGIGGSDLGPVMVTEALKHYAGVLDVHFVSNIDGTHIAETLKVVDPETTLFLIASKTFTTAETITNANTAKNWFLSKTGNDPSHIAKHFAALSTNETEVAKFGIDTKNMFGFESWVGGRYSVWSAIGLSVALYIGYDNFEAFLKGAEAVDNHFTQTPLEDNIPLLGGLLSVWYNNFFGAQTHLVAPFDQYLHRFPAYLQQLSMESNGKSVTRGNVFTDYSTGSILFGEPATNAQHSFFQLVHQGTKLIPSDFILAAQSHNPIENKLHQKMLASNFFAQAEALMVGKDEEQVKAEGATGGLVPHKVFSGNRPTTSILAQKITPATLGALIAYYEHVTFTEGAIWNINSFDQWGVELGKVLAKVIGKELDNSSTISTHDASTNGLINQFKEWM
T2 sequence (P12709 2-554): as above

B1: CA17457 (VHH)
VHH: QVQLVESGGGLVQTGGSLRLSCAASGGHFSNLAMGWFRQAPGKEREFVAAIGRSQFNLLYSNFVKGRFTISRDNAENTVYLQLNSLNSEDTAIYYCASSGGVSDWRGIMTTGARLARNYDYWGQGTQVTVSS
notes: C-terminal 6xHis-EPEA tag is part of the entry
On to B1, for which the binding result in experiment [1] and in experiment [2] was “binds” each time.

B2: CA17455 (VHH)
VHH: QVQLVESGGGLVQPGGSLRLSCAASGITFPSYRLSWYRQAPGKERELVAAITSDGGTTNYADFVKGRFTISRDNTKNTVYLQMNSLKPEDTAVYYCKAQYFSTPLTYWGQGTQVTVSS
notes: C-terminal 6xHis-EPEA tag is part of the entry; also called PGI1-specific trapper/stripper
Regarding B2, the binding result in experiment [1] and in experiment [2] was “binds” each time.

B3: CA17564 (VHH)
VHH: QVQLVESGGGLVQPGDSLRLSCVVSVQHFGNYIVGWFRQPPGKEREFVSAISRGLRTYYADSVKGRVTISRDNAKNSVYLQMNSLKPEDTAVYYCAGSRLLEGAPRDSRGYNNWGQGTQVTVSS
notes: as for B1
For B3, the binding result in experiment [3] and in experiment [4] was “binds” throughout.

B4: CA17565 (VHH)
VHH: QVQLVESGGGRVQPGGSLRLSCVASGFTFTSYGMSWYRQTPGKEREFVAAISSESTWADYGDSVKGRFTISRDNAKKMVYLQMNSLKPDDTAVYYCNRDQVPWPTWGPGTQVTVSS
notes: as for B1
Regarding B4, the binding result in experiment [3] and in experiment [4] was “binds” in each case.

B5: CA17460 (VHH)
VHH: QVQLVESGGGLVQPGDSLRLSCAASGFTVSTNTMTWVRQAPGKGLEWVSTKYSTGGTTYANSVKGRFTISRDNAKNTLYLQMNNLKPEDTAVYYCGGADYRGQGTQVTVSS
notes: as for B1
With B5, the binding result in experiment [5] and in experiment [6] was “binds” in each case.
